Reference: US11110182B2, “Multifunctional RNA nanoparticles and methods for treating cancer and therapeutic resistant cancer” (University of Cincinnati, priority 2016, dated 2021)

System: MED1
Test: MED1 protein level by western blotting in BT474 cells
Type: cell-based, human
Details: 48 h; for MED1 protein level after transfection with lipofectamine 2000: BT474, transfected
Method: FIG. 3A) BT474 cells were incubated with 10 μg/mL control and pRNA-HER2apt-siMED1 nanoparticles for 48 h, and MED1 mRNA level was determined by real-time PCR. FIG. 3B) BT474 cells were incubated directly with (as indicated by -) or transfected with indicated pRNAs using lipofectamine 2000. At 48 h post treatment, MED1 protein levels were determined by western blotting. FIG. 3C) BT474 cells were treated with 10 μg/mL pRNA nanoparticles for 48 h and assayed for cell viability by MTT assay. FIG. 3D) Cells were treated as above and seeded for migration, and FIG. 3E) invasion transwell assays. Scale bar: 50 μm. FIG. 3F) After pRNA treatment for 48 h, the mRNA levels of ERα target genes TFF-1, FIG. 3G) c-Myc, and FIG. 3H) cyclin D1 in BT474 cells were determined by real-time PCR.
FIG. 7A) Six HER2-targeting RNA aptamers were selected from previous literatures, and their secondary structures were predicted using Srna-fold software. FIG. 7B) Six p2 strands containing the six different HER2 RNA aptamers were synthesized and annealed with the same p1 strand to generate six different pRNA-HER2apt-MED1 siRNA nanoparticles, respectively, followed by examination using 8% native PAGE gel electrophoresis. FIG. 7C) BT474 cells were treated with above pRNA nanoparticles for 48 h, and then MED1 protein level was determined by western blotting. […] FIG. 7D) 1 μg pRNA nanoparticles were incubated with recombinant Dicer enzyme (Genlantis) at 37° C. for 12 h, the product was separated by 8% native PAGE gel.
FIG. 9A) BT474 cells were treated with different concentrations of pRNA nanoparticles as indicated for 48 h. After that, MED1 protein level was determined by western blots, and FIG. 9B) the cell viability was determined by MTT assay.
Cell culture. Human breast cancer luciferase-overexpressing BT474 and MDA-MB-231 cells were maintained in DMEM medium (Hyclone, Thermo Scientific) supplemented with 10% fetal bovine serum (FBS, Sigma) and 1% penicillin/streptomycin (Corning) at 37° C. in a humidified atmosphere with 5% CO2.^53 • Generation of pRNA nanoparticles. The two strands of pRNA were synthesized with the DNA templates, which were amplified with overlapping primers (Sigma) by PCR methods, using a T7 promoter-controlled in vitro RNA transcription system as previously described^33 (Table 1). All the CTP and UTP used for synthesis of the pRNA nanoparticles were 2′-fluoro modified, except the control unmodified pRNA nanoparticles used in the stability assays. Following an overnight transcription at 37° C., RNA strands were purified using RNA clean and concentrator kits (ZYMO research) and examined by 8 M urea denatured 8% PAGE gel. pRNA nanoparticles were assembled by mixing the equal molar amounts of p1 and p2 strands and gradually annealing from 90° C. to 20° C. in 1×RNA annealing buffer containing 50 mM Tris-HCl (pH 7.5), 50 mM NaCl and 1 mM EDTA on a PCR machine. […] The hydrodynamic diameter and Tm value of pRNA nanoparticles were determined using dynamic light scattering and TGGE assay, respectively, as previously described.^54 The AFM imaging of the pRNA nanoparticles was performed at the University of Nebraska Medical Center imaging facility as previously reported.^55 Briefly, the pRNA nanoparticles (5 μL) were deposited on APS modified mica ^56 for a total of 2 min of incubation time. […]

B1: pRNA-HER2apt-siMED1: 3-WJ pRNA nanoparticle bearing a HER2-targeting RNA aptamer and two different MED1 siRNAs; strands p1 SEQ ID NO: 3, p2 SEQ ID NO: 4 (nucleic acid)
chain 1: GGACAGUGAAAGUGAGUCAAAGGAUCAAUCAUGGCCAAAGAUGUUACUUUGAGAGCCUU
chain 2: GGCUCUCAAAGUAACAUCUAAGGCCAUGUGUAUGUGGGGGGAGGACGAUGCGGUCUGCUGUGCUUGAUAUGCCCCAGACGACUCGCCCCCCACAUACUUUGUUGAUCCAAUGACUCACUUUCACUGUCCUU
modifications: 2'-F modification; third strand may lack entry; pRNA-HER2apt-siMED1, p1; pRNA-HER2apt-siMED1, p2
BT474, different concentrations
  dose dependence of decrease of MED1 protein level: dose-dependent manner
BT474, direct incubation
  MED1 protein level: greatly reduced
  MED1 protein level after transfection with lipofectamine 2000: MED1 silencing

B2: pRNA-HER2apt^mut-siMED1: control pRNA nanoparticle with mutant HER2 aptamer; strands p1 SEQ ID NO: 5, p2 SEQ ID NO: 6 (nucleic acid)
chain 1: GGACAGUGAAAGUGAGUCAAAGGAUCAAUCAUGGCCAAAGAUGUUACUUUGAGAGCCUU
chain 2: GGCUCUCAAAGUAACAUCUAAGGCCAUGUGUAUGUGGGAUGAGGAGUAUGAAGAUACCUGUACUUGAUAUGCCCCAGACGACAUUCCCCCCACAUACUUUGUUGAUCCAAUGACUCACUUUCACUGUCCUU
modifications: pRNA-HER2apt(mut)-siMED1, p1; pRNA-HER2apt(mut)-siMED1, p2
  MED1 protein level after transfection with lipofectamine 2000: MED1 silencing
